{"source": "paper PMC6337079", "about": "“Exploring Novel Functions of the Small GTPase Ypt1p under Heat-Shock by Characterizing a Temperature-Sensitive Mutant Yeast Strain, ypt1-G80D” (International Journal of Molecular Sciences, 2019)", "biological_target": "the molecule itself", "experiment": "native gel or EMSA; purified protein (3 μg/μL) incubated at 25 °C or 45 °C for 30 min, native-PAGE, silver-stained; self-association"}
{"protein": "Ypt1p (purified bacterially expressed recombinant) (natural protein, Ypt1p, Rab family small GTPase of Saccharomyces cerevisiae, from the plasmid pGEX-YPT1; monomer printed as 23.5 kDa; also called native Ypt1p; wild-type Ypt1p; source: E. coli BL21(DE3)pLysS, purified (GSH-agarose, thrombin cleavage, TSK heparin-5PW HPLC, ATP-agarose)) not shown", "values": [{"measurement": "binding result", "value": "binds"}]}
{"protein": "Ypt1p^G80D (purified bacterially expressed recombinant) (natural protein, Ypt1p of Saccharomyces cerevisiae with G80D, from the plasmid pGEX-ypt1^G80D (pGEX-2T, BamHI/HindIII insert); source: E. coli BL21(DE3)pLysS, purified (GSH-agarose, thrombin cleavage, TSK heparin-5PW HPLC, ATP-agarose)) not shown", "values": [{"measurement": "binding result", "value": "binds"}]}
